What all share (experiment): DTNB continuous spectrophotometric thioesterase assay
Common to all, as to format: biochemical, Escherichia coli
What all share (settings): pH 7.5, 25 °C

Substrate in series [1]: CC(C)(COP(=O)(O)OP(=O)(O)OC[C@H]1O[C@@H](n2cnc3c(N)ncnc32)[C@H](O)[C@@H]1OP(=O)(O)O)[C@@H](O)C(=O)NCCC(=O)NCCSC(=O)Cc1cccc(O)c1
Substrate in series [2]: CCCCCCCCCCCCCCCC(=O)SCCNC(=O)CCNC(=O)[C@H](O)C(C)(C)COP(=O)(O)OP(=O)(O)OC[C@H]1O[C@@H](n2cnc3c(N)ncnc32)[C@H](O)[C@@H]1OP(=O)(O)O
Substrate in series [3]: CCCCCC(=O)SCCNC(=O)CCNC(=O)[C@H](O)C(C)(C)COP(=O)(O)OP(=O)(O)OC[C@H]1O[C@@H](n2cnc3c(N)ncnc32)[C@H](O)[C@@H]1OP(=O)(O)O
Substrate in series [4]: CCC(=O)SCCNC(=O)CCNC(=O)[C@H](O)C(C)(C)COP(=O)(O)OP(=O)(O)OC[C@H]1O[C@@H](n2cnc3c(N)ncnc32)[C@H](O)[C@@H]1OP(=O)(O)O
Substrate in series [5]: CCCCCCCCCCCC(=O)SCCNC(=O)CCNC(=O)[C@H](O)C(C)(C)COP(=O)(O)OP(=O)(O)OC[C@H]1O[C@@H](n2cnc3c(N)ncnc32)[C@H](O)[C@@H]1OP(=O)(O)O
Substrate in series [6]: CC(C)(COP(=O)(O)OP(=O)(O)OC[C@H]1O[C@@H](n2cnc3c(N)ncnc32)[C@H](O)[C@@H]1OP(=O)(O)O)[C@@H](O)C(=O)NCCC(=O)NCCSC(=O)c1cccc(O)c1
Substrate in series [7]: CC(=O)SCCNC(=O)CCNC(=O)[C@H](O)C(C)(C)COP(=O)(O)OP(=O)(O)OC[C@H]1O[C@@H](n2cnc3c(N)ncnc32)[C@H](O)[C@@H]1OP(=O)(O)O
Substrate in series [8]: CCCCCCCCCC(=O)SCCNC(=O)CCNC(=O)[C@H](O)C(C)(C)COP(=O)(O)OP(=O)(O)OC[C@H]1O[C@@H](n2cnc3c(N)ncnc32)[C@H](O)[C@@H]1OP(=O)(O)O
Substrate in series [9]: CC(C)(COP(=O)(O)OP(=O)(O)OC[C@H]1O[C@@H](n2cnc3c(N)ncnc32)[C@H](O)[C@@H]1OP(=O)(O)O)[C@@H](O)C(=O)NCCC(=O)NCCSC(=O)c1ccc(O)cc1

B1: EntH (Escherichia coli K-12) (protein)
chain: MIWKRHLTLDELNATSDNTMVAHLGIVYTRLGDDVLEAEMPVDTRTHQPFGLLHGGASAALAETLGSMAGFMMTRDGQCVVGTELNATHHRPVSEGKVRGVCQPLHLGRQNQSWEIVVFDEQGRRCCTCRLGTAVLG
In the case of B1, the Km came to 37 ± 1 µM in [1]; 55 ± 9 µM in series [2]; 350 ± 90 µM in [3]; 400 ± 40 µM in series [4]; 45 ± 2 µM in series [5]; 35 ± 1 µM in series [6]. Further, the values for the Km in series [7], in series [8] and in [9] were 800 ± 90 µM, 49 ± 3 µM and 21 ± 2 µM, respectively. Moreover, the kcat was determined as 2.1 ± 0.5 s⁻¹ in series [1]; 0.085 ± 0.004 s⁻¹ in series [2]; 0.058 ± 0.001 s⁻¹ in series [3]; 0.0125 ± 0.0006 s⁻¹ in series [4]; 0.0281 ± 0.0003 s⁻¹ in series [5]; 1.21 ± 0.01 s⁻¹ in series [6]. In addition, the figures for the kcat in series [7], in [8] and in series [9] were 0.0044 ± 0.0002 s⁻¹, 0.0267 ± 0.0004 s⁻¹ and 1.55 ± 0.05 s⁻¹, respectively.

As usually defined, the Km is the substrate concentration at which the rate is half of its maximum. The term kcat denotes the number of substrate molecules converted per active site and unit of time at saturation.

The values are drawn from PMC2929593.
